The values that follow come from publication PMC8884905, “RECON syndrome is a genome instability disorder caused by mutations in the DNA helicase RECQL1” (The Journal of Clinical Investigation, 2022).

Data set [1] has as its system RECQL1 WT (human). In words: EMSA. To be noted: EMSA: 20 mM Tris pH 7.4, 10 mM KCl, 5 mM MgCl2, 10% glycerol, 80 ng/ul BSA, with or without 5 mM ATPgS, 0.5 nM DNA; competition at 37 C (8 min, then 7 min with …). For orientation: A gel shift assay detects complexes by their altered migration in electrophoresis.
Data set [2] concerns RECQL1-A459S (human). Put plainly: EMSA. To be noted: EMSA: 20 mM Tris pH 7.4, 10 mM KCl, 5 mM MgCl2, 10% glycerol, 80 ng/ul BSA, with or without 5 mM ATPgS, 0.5 nM DNA; competition at 37 C (8 min, then 7 min with …).
The test system of data set [3] is RECQL1 WT (human). Put plainly: EMSA. The following applies: EMSA: 20 mM Tris pH 7.4, 10 mM KCl, 5 mM MgCl2, 10% glycerol, 80 ng/ul BSA, with or without 5 mM ATPgS, 0.5 nM DNA; competition at 37 C (8 min, then 7 min with …). The source holds these as a separate data set.
For data set [4], the system named is RECQL1-A459S (human). Put plainly: EMSA. To be noted: EMSA: 20 mM Tris pH 7.4, 10 mM KCl, 5 mM MgCl2, 10% glycerol, 80 ng/ul BSA, with or without 5 mM ATPgS, 0.5 nM DNA; competition at 37 C (8 min, then 7 min with …). The source holds these as a separate data set.
Data set [5] concerns the molecule itself. Put plainly: SEC; size exclusion chromatography of the purified recombinant protein in the absence of ATP. (In gel filtration, larger molecules generally elute earlier.)

In the case of 19 bp forked duplex, the Kd in the data set with RECQL1 WT (human) [1] was determined as 2.94 nM?; in the data set on RECQL1-A459S (human) [2], 4.74 nM?; with RECQL1 WT (human) [3] it was 5.39 nM?; in the data set with RECQL1-A459S (human) [4], 7.69 nM?.

B1: recombinant human WT RECQL1 (enzyme, UniProt P46063 1-649, looked up)
chain: MASVSALTEELDSITSELHAVEIQIQELTERQQELIQKKKVLTKKIKQCLEDSDAGASNEYDSSPAAWNKEDFPWSGKVKDILQNVFKLEKFRPLQLETINVTMAGKEVFLVMPTGGGKSLCYQLPALCSDGFTLVICPLISLMEDQLMVLKQLGISATMLNASSSKEHVKWVHAEMVNKNSELKLIYVTPEKIAKSKMFMSRLEKAYEARRFTRIAVDEVHCCSQWGHDFRPDYKALGILKRQFPNASLIGLTATATNHVLTDAQKILCIEKCFTFTASFNRPNLYYEVRQKPSNTEDFIEDIVKLINGRYKGQSGIIYCFSQKDSEQVTVSLQNLGIHAGAYHANLEPEDKTTVHRKWSANEIQVVVATVAFGMGIDKPDVRFVIHHSMSKSMENYYQESGRAGRDDMKADCILYYGFGDIFRISSMVVMENVGQQKLYEMVSYCQNISKCRRVLMAQHFDEVWNSEACNKMCDNCCKDSAFERKNITEYCRDLIKILKQAEELNEKLTPLKLIDSWMGKGAAKLRVAGVVAPTLPREDLEKIIAHFLIQQYLKEDYSFTAYATISYLKIGPKANLLNNEAHAITMQVTKSTQNSFRAESSQTCHSEQGDKKMEEKNSGNFQKKAANMLQQSGSKNTGAKKRKIDDA
notes: RECQL1 (RECQL, RECQ1) DNA helicase, human, wild type; also called RECQ1; source: insect cells, purified to near homogeneity
Take B1: the binding result in data set [5] is recorded as “binds”.

B2: recombinant human RECQL1-A459S (enzyme, UniProt P46063 1-649, looked up)
chain: MASVSALTEELDSITSELHAVEIQIQELTERQQELIQKKKVLTKKIKQCLEDSDAGASNEYDSSPAAWNKEDFPWSGKVKDILQNVFKLEKFRPLQLETINVTMAGKEVFLVMPTGGGKSLCYQLPALCSDGFTLVICPLISLMEDQLMVLKQLGISATMLNASSSKEHVKWVHAEMVNKNSELKLIYVTPEKIAKSKMFMSRLEKAYEARRFTRIAVDEVHCCSQWGHDFRPDYKALGILKRQFPNASLIGLTATATNHVLTDAQKILCIEKCFTFTASFNRPNLYYEVRQKPSNTEDFIEDIVKLINGRYKGQSGIIYCFSQKDSEQVTVSLQNLGIHAGAYHANLEPEDKTTVHRKWSANEIQVVVATVAFGMGIDKPDVRFVIHHSMSKSMENYYQESGRAGRDDMKADCILYYGFGDIFRISSMVVMENVGQQKLYEMVSYCQNISKCRRVLMSQHFDEVWNSEACNKMCDNCCKDSAFERKNITEYCRDLIKILKQAEELNEKLTPLKLIDSWMGKGAAKLRVAGVVAPTLPREDLEKIIAHFLIQQYLKEDYSFTAYATISYLKIGPKANLLNNEAHAITMQVTKSTQNSFRAESSQTCHSEQGDKKMEEKNSGNFQKKAANMLQQSGSKNTGAKKRKIDDA
notes: Variant found in patients (RECON syndrome); also called p.A459S mutant RECQL1; RECQL1 p.Ala459Ser; source: insect cells, purified to near homogeneity
Consider B2, for which, in data set [5], the binding result is reported as “binds”.
